Results: PMC3946054 (Structure (London, England : 1993), 2013)
Read-outs that look alike come from different tables or passages of the source.

How the values were obtained:
[1] = biological target: T1, SCaMC-1 transmembrane domain (TMD), residues 185-477, incorporated in POPC/POPG/cardiolipin liposomes (human, UniProt Q6NUK1 185-477); experiment: SPR
T1 sequence (looked up): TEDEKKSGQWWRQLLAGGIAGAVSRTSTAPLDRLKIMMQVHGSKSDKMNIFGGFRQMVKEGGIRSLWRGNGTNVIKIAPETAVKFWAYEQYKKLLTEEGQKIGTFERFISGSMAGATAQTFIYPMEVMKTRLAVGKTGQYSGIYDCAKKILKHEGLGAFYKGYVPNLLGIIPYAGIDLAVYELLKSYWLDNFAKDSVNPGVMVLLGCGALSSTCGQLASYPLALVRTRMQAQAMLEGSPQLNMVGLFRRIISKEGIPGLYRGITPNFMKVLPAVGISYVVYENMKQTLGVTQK

[2] = biological target: T1, SCaMC-1 transmembrane domain (TMD), …; experiment: SPR; remark: listed apart in the source

Kd [1]: 250 µM
Kd [2]: 5600 µM
B1: Human SCaMC-1 N-terminal domain (NTD), residues 1-193 (domain or fragment, UniProt Q6NUK1 1-193, looked up)
chain: MLRWLRDFVLPTAACQDAEQPTRYETLFQALDRNGDGVVDIGELQEGLRNLGIPLGQDAEEKIFTTGDVNKDGKLDFEEFMKYLKDHEKKMKLAFKSLDKNNDGKIEASEIVQSLQTLGLTISEQQAELILQSIDVDGTMTVDWNEWRDYFLFNPVTDIEEIIRFWKHSTGIDIGDSLTIPDEFTEDEKKSGQ
